This series in a line: label from the status in PepcDB records.
Consider “MANKENTSDEGLRVSYDVKTYHEQKYIDYTLRLREILKTLPSFAKDYFRAIEPTTSANTRISYAYDIRVFFRFLMENNPVYKNYTIDQFTLADIENLEPVDIEEYQEYLKVYKNDEKQVTNTEKGLARKMSALRSFYGYYFKRQAISKNPTLLVDMPKLHEKAIIRLDADEVVRLLDYVDHGGDHLTGQKKAYFEKTRNRDLAILTLLLGTGIRVSECVGLDINDVDFENNGIKVMRKGGNEMIVYFGEEVENALKTYMYTTRRTTLPLPGHENALFLSTQRKRMGVQAIENMVKKYAREVTPNKKITPHKLRSTYGTSLYKETGDIYLVADVLGHKDVNTTKKHYAAIDEDRRRQAANIVKLREV”, for which the protein production result is listed as “failed”. Regarding “MENLKKYLEVAKIAALAGGQVLKENFGKVKKENIEEKGEKDFVSYVDKTSEERIKEVILKFFPDHEVVGEEMGAEGSGSEYRWFIDPLDGTKNYINGFPIFAVSVGLVKGEEPIVGAVYLPYFDKLYWGAKGLGAYVNGKRIKVKDNESLKHAGVVYGFPSRSRRDISIYLNIFKDVFYEVGSMRRPGAAAVDLCMVAEGIFDGMMEFEMKPWDITAGLVILKEAGGVYTLVGEPFGVSDIIAGNKALHDFMLQVAKKYMEVAV”, the protein production entry is “not failed”. Regarding “MSATGIKRSNLNTRPVQRDASAKQTAIKGPYGKSPGCTTSCGLRLPRKTEVTAAKLIKHLGCKFAKGLRLVVMRKKKRSPPSKVSSFSGRSQPPIIPINNDSHRSEAIEDCIQFINSSSSFTRSNSTS”, the protein production result is on record as “failed”.

In the case of “KFGELREISGNQYVNEVTNAEKDLWVVIHLYRSSVPMCLVVNQHLSVLARKFPETKFVKAIVNSCIEHYHDNCLPTIFVYKNGQIEGKFIGIIECGGINLKLEELEWKLSEVGAIQSDLEEN”, the protein production result is on record as “not failed”. In the case of “MNIGVIILAAGEGKRFGGDKLLAKIDNTPIIMRTIRIYGDLEKIIIVGKYVNEMLPLLMDQIVIYNPFWNEGISTSLKLGLRFFKDYDAVLVALGDMPFVTKEDVNKIINTFKPNCKAVIPTHKGERGNPVLISKSLFNEIEKLRGDVGARVILNKIKIEELCFIECSEGVLIDIDKKEDLMRLRDFHP” it was “failed”; in that of “MIYLLLGAVIITFLLWPRGRALLKGDGWRVGAGAAAIAAFAVAAYATIRGAWGTGIVLGVIGLWSVTEARRRPIVRREVVHPPKPELSLSEARAILGVGPEASLAEVKAAYNRLIQMAHPDKGGTEGLAAQLNAARDRLIKPRGSARVEP”, “failed”; in that of “MPGGRRRGFDDQVALQTAMELFWRQGYEGTSITDLTKALGINPPSLYAAFGSKRDLFEKTLDRYMCERTLQLEEAMVRPTAHEAVLDFLTGRVEVFTAPGQPFGCMTVQAGLASGEPHHEIVDLLTAAREQMRQTVLDRFEKALADGDLPAGTDCTALARYVMAAVYGLSVEAASGAPREELTAAAILAAQVVPRAQM”, “not failed”. With “MKLFKRISFILIVLYILIVPVQHVSAHAYLENSNPADQSHIKTAPEKVTLVFNEEIEADFPLIEVKDSSGKRVETGKTSVSKKNNHMVEASLPAELKADVYSVSWRVVSADGHAVTGIISFKLGDTKATFQESEVPSSGADLQISSIQKAILYIGFSLFIGVLVFGLGLYPRKEQISEKISGRLKKVTWIALALLGVALFMQLFVQTSITTGVSISESFGPSKLAAFLTTKTGYIWISEFIVWLLLAIFTIMMFFKNKQWSWFALLTESALIGYLIFAKAQNGHAAASADKIVSITADMLHMIAASVWVGGILVLLFVLPKTGKAREIWSRFAIVAIIAVASILVSGLLMAVMNIGQMSNLFTTNYGKILLFKIGLFLLMALLGLGHYIYLKLKNKKLPFKTILIELIIGTIILIVASVLTNVQTPPPPAPKAFDETIAAKGENAKINLRVEPATVGQNQFIITFTSADGATKTDFEQVTITTKSTKTDEKATFQAKLANENQYFAEGLYINQTGKWEITVHGLTKDFTDINQTFTTNITQ”, the protein production entry is “failed”. With “MAPPTPHLAVRGSDGTLLLHGPPNCQESSAFQRDDRQGRYMTFSNDGTLFAWCNGSQVTVLKVPSGDLVKSFDLPKTTALEFSPLNKVLATWQQYTKTQDNPQGEANLQLWDLQTGACMKAFYQKKMTGWCPSWADDESISVRNVNNELHFFENNNFETIANKLHLQKVSEFALSPGSQPSKVAVYVPGSKGAPSFVRLYQYPNFGGPTCALANKSFFKADKVNMLWNKKATAVLVTASTEVDKTGASYYGEQTLHYVATNGESAVVQLPKNGPIYDVSWSPNSTEFCVVYGFMPAKATVFNNKCESVFDFGTGPRNAAFYSPQGHILVLAGFGNLRGQMEVWDVKKYKQVSKPQAEDTTHFSWCPDGEHIVTATCSPRLRASNGYKIWHYTGTVLYKHETPSGKELWEVLWQPFPAGVFPERAVKYQALPSELGSTEAKPAQAYRPPALRNKPQTASSKLHEEEPPQNMKPGAAGEKQPSKAALKNQKRREAKKAAKQENKPDEAPPPAADPAPVSHVTSSCGDPETDKKIKNLKKKLKAIDELKEQQAAGKVMQKNQLEKMQKEAQLLKELEDLELGL”, the protein production entry is given as “not failed”. As for “MKVTSVGAAMLLLIVGNLIAVLSDSLIKSVANEVPMFQFVFFRQISAVMFLLPVCLLAKQTNFMEGFKWHAVRAHVWLLGAVFMVMAISSLPLATANAIFYAAPLIMLPLAAIFFGEQLSKQSVAAAVMGFAGVLVIIRPDQIDWAAISAFVVALTLAINNLLIRKLPKNQSVMQTLLMTNLAGIPVALLLVLIEDQPWQWGAFPVAAGSSLFIMIYAATCVLAYRSIDSNKIASAEYSGLIGAVVVGFIWFGEIPDIFMAIGTVMIVVPLIWLSKRERRKQKEHAQLQAQKEHEQQQAHVA”, the protein production result is listed as “failed”. As for “MGNKITVEVTVYAAIEKVWKYWNEPAHIMKWCQASPEWHVPAAQNDLKAGGTFTTTMAAKDGSMSFDFGGVYDQVKTNDLIEYTIGDGRKVRIVFTHTGDTTNIVESFDPEETNPRELQQSGWQAILNSFKSYTENNLEHHHHHH”, the protein production result is listed as “not failed”. As to “MVYVGTSGFSFEDWKGVVYPEHLKPSQFLKYYWAVLGFRIVELNFTYYTQPSWRSFVQMLRKTPPDFYFTVKTPGSVTHVLWKEGKDPKEDMENFTRQIEPLIEEQRLKMTLAQFPFSFKFSRKNVEYLEKLRESYPYELAVEFRHYSWDREETYEFLRNHGITFVVVDEPKLPGLFPYRPITTTDYAYFRFHGRNERWFEAEGEERYDYLYSEEELKTLFEDVVELSRRVKETYVFFNNCYKGQAAINALQFKKMLEERV”, the protein production result is “not failed”. Turning to “MNLRAIKAILIKDLKEIRREKMVVFWIFVFPLMWVTLMGALWGGPGSPVTVDVGVVNPGGNISTLITEIMENSTINGTQLFNVKLFPNASLGIEALKHGSIKALVLFPEDFDINITSGLQGRVLVYFDKTDPQNYQIVSSIIRSFFSEVGREFRARKIEMMMQYIPTEYKEYLLATAEPIVLEEKIIHGESGRGIKFYVTSFIGIQFFFATMLMIGGSVLEEITKGTLRRIAASPTTPWDFLIGKSLSTLTTIIVSIIIGIGYARVVFGATLFPSLFGWAIIFTAAVFSMSLGLAIVMLTRSERSTPAVVNLVSMPLLFLAGIVIPESIMPEWARPIAHYFPLGRALKVLRLSDIYGRPPGELVGDFIYVLIWSVLMAMVAVASYAWAIRRID”, the protein production result is “failed”.

With “MKLKILLLTILTLGAMTVHAQKITGDWKGMLSIPQANMELELIFHITGEGADLSTTMDVPAQGATGIPVEKTSFADGKLTLSAAALQFTFKGTLSGNTIEGNVEQMGFSLPLTLQRFESKLPGNTALPSTEEELKALAALDKGNYKYKVEDYFAKPKASAFQLSPNGKYLSYMEKDDAGKRHVYVKEIATGTVKRAIEEKDELIKGYGWINDERLFFVMDKGGNENYHLFASNIDGSNTRDLTPFDGVKASILNMLKEQKDYMIISMNKNNPQIFEPYKLNVVTGELTQLYENKDAANPIQGYEFDKDGELRGYSRLVNGIESELYYKDLATGEFRLLKKTHWDDTFGVIAFNYASKNKDEAYVLTNLDSDKTRIVLYDLKQNKIIREIFANEDYDVSGLHLSRKRNYEIDLMAYEGEKSVVVPVSATYKELHKLMEKEFKGKEFSVVDYDDDETILLIAVQSDKLYGTYYQFDTRTKKFTLLYDLMPQLKEEDMAEMRPIKFKSRDGLTIHGFITLPKAALEGKKVPLIVNPHGGPQGIRDSWGFNPETQLFASRGYATLQVNFRISGGYGKEFLRAGFKQIGRKAMDDVEDGVRYAISQGWVDPDRIAIYGASHGGYATLMGLVKTPDLYACGVDYVGVSNIYTFFDSFPEYWKPFKEMVKEIWYDLDNPEEAAIAKEVSPFFQIDKINKPLFVVQGANDPRVNINESDQIVTALRARGFEVPYMVKYNEGHGFHREENSMELYRAMLGFFAKHLKK”, the protein production result is listed as “failed”.

For the origin of these results see a protein production outcome set (Wang et al. 2014).
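Also: failed if final PepcDB status was selected cloned or expressed and not failed if soluble or beyond.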
